First the molecules themselves.
B1: Rac GTPase-activating protein 1 (Homo sapiens), Q9H0H5 (parent)
chain: MDTMMLNVRNLFEQLVRRVEILSEGNEVQFIQLAKDFEDFRKKWQRTDHELGKYKDLLMKAETERSALDVKLKHARNQVDVEIKRRQRAEADCEKLERQIQLIREMLMCDTSGSIQLSEEQKSALAFLNRGQPSSSNAGNKRLSTIDESGSILSDISFDKTDESLDWDSSLVKTFKLKKREKRRSTSRQFVDGPPGPVKKTRSIGSAVDQGNESIVAKTTVTVPNDGGPIEAVSTIETVPYWTRSRRKTGTLQPWNSDSTLNSRQLEPRTETDSVGTPQSNGGMRLHDFVSKTVIKPESCVPCGKRIKFGKLSLKCRDCRVVSHPECRDRCPLPCIPTLIGTPVKIGEGMLADFVSQTSPMIPSIVVHCVNEIEQRGLTETGLYRISGCDRTVKELKEKFLRVKTVPLLSKVDDIHAICSLLKDFLRNLKEPLLTFRLNRAFMEAAEITDEDNSIAAMYQAVGELPQANRDTLAFLMIHLQRVAQSPHTKMDVANLAKVFGPTIVAHAVPNPDPVTMLQDIKRQPKVVERLLSLPLEYWSQFMMVEQENIDPLHVIENSNAFSTPQTPDIKVSLLGPVTTPEHQLLKTPSSSSLSQRVRSTLTKNTPRFGSKSKSATNLGRQGNFFASPMLK
partner: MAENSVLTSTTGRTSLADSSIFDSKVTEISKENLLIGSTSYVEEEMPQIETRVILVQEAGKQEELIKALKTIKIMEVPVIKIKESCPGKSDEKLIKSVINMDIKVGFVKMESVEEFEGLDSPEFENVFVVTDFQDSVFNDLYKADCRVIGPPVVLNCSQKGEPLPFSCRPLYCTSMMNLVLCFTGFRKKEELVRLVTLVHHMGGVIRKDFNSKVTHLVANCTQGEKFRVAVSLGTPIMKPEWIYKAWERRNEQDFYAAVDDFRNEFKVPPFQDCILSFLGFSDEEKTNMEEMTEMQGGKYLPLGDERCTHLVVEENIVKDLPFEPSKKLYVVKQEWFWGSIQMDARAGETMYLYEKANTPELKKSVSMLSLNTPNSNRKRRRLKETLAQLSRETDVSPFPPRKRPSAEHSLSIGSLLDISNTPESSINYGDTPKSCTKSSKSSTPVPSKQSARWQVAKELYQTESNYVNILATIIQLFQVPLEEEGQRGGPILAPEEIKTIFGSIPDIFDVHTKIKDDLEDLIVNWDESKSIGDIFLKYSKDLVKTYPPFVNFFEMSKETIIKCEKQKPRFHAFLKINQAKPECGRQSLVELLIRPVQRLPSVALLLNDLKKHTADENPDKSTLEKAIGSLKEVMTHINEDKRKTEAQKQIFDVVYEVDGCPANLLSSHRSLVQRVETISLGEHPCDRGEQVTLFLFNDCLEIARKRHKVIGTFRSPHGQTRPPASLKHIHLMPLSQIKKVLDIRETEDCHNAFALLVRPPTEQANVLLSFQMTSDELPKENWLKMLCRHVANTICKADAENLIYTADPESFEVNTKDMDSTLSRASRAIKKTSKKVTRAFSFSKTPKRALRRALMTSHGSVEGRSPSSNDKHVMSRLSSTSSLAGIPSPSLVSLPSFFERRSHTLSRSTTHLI
B2: Protein ECT2 (Homo sapiens), Q9H8V3 (parent)
chain: B1 partner
partner: B1 chain

Experimental findings from IntAct's records for PubMed 25068414 are described below.

The variants in one test derive from B1. As to conditions: with ect2_human ECT2, Q9H8V3.
On to W167A, for which the “effect of a mutation on the interaction” value was “decreasing interaction”.

A further test covers variants of B2. The note with it: with rgap1_human RACGAP1, Q9H0H5.
For the variant V153A, the “effect of a mutation on the interaction” value was “decreasing interaction”.

A further test covers variants of B2. As to conditions: with rgap1_human RACGAP1, Q9H0H5. The source holds these as a separate data set.
As to P163E, the “effect of a mutation on the interaction” value was “decreasing interaction”.

In the next test the parent is B2. As to conditions: with rgap1_human RACGAP1, Q9H0H5. The source holds these as a separate data set.
For L195M, the “effect of a mutation on the interaction” value was “disrupting interaction”.

A further test covers variants of B2. As to conditions: with rgap1_human RACGAP1, Q9H0H5. This is another data set of the same source.
Consider V153A;L195M, for which the “effect of a mutation on the interaction” value is given as “disrupting interaction”.
